Assay: soluble on expression in E. coli; label from the status in PepcDB or PDB records

| Sequence | soluble on expression in E. coli |
| --- | --- |
| MKSRIPVVLLACGSFNPITNMHLRMFEVARDHLHQTGMYQVIQGIISPVNDTYGKKDLAASHHRVAMARLALQTSDWIRVDPWESEQAQWMETVKVLRHHHSKLLRSPPQMEGPDHGKALFSTPAAVPELKLLCGADVLKTFQTPNLWKDAHIQEIVEKFGLVCVGRVSHDPKGYIAESPILRMHQHNIHLAKEPVQNEISATYIRRALGQGQSVKYLIPDAVITYIKDHGLYTKGSTWKGKSTQSTEGKTS | soluble |
| GDFIVVQSTTSTQNSGLLDHILPAFEAETGIEVRVVAVGTGQAIRNAANGDGDVLLVHAKAAEEKFVAEGWGVERFDVMYNDFVLVGPASDPAGVRGGSDIVAALSAIAGAEAPFASRGDDSGTHKAELRHWASAGIDVSAASGGWYRETGSGMGATLNLAAGMGAYALSDRATWIAFGNKGDLVVAVEGDARLFNQYGVILVNPAKHPGVKAEAGQRFIDWLTGDEGQAAIAGYTL | not soluble |
| GPGSMALVHTTYPQCLSLVEADTAEAEVQQALEDGANTLYFSHHFNYTDVPPSIAALREQLEVLHIDNNYPFTTISPRVTALTNLRWLNASYCSLRSVDSSISRLSKLERLTLNNNMLTWLPLDVWQLKALEELHIDNNQLNVLPGCLLFLPRLRVLTLENNPLYTHEEVNGAAAATYIPVQCSVDCSACCIRSRNYKVFVTFHTIVGHSDVPFVHVVCSDECAVHVRSRLEAYDRAHANQP | soluble |
| PEHIRQMAQAVEGVTPRALPDLPVACRLSGLEPLTIEKETLFINVGERTNVTGSARFKRLIKEEQYDEALEVARQQVENGAQIIDINMDEGMLDAQACMVRFLNLCASEPEISKVPIMVDSSKWEVIEAGLKCIQGKGIVNSISLKEGKEKFVEQAKLIRRYGAAVIVMAFDEVGQAETRTRKLEICTNAYRILVDEVGFPPEDIIFDPNIFAVATGIDEHNNYAVDFIEAVADIKRDLPHAMISGGVSNVSFSFRGNNYVREAIHAVFLYHCFKNGMDMGIVNAGQLEIYDNVPEKLREAVEDVVLNRRDDATERLLDIAAEYADKGVGKEEDASAL | not soluble |
| MKHARRLRQLSQENLAHISGLSQSAVASYENGLRQSSRSIRKLAIALQVNLDWLETGAGPMELEAYPSGPAAWRPGLMEPGGERAAAPWPFRAVAHARYQALSARDKLLLEQLVRTFIDTCHADYGRAPPWPRER | not soluble |
| VGPGMPFANRVVNRFGQVGLVPCSIGGTKLSQWQKGEFLYEETVKRAKAAMASGGGGSYRAVLWYQGESDTVDMVDASVYKKRLVKFFSDLRNDLQHPNLPIIQVRCLNT | soluble |
| MSLNGFCARLRAITFNERLKMKIAVLLSGGVDSSYSAYSLKEQGHELVGIYLKLHASEKKHDLYIKNAQKACEFLGIPLEVLDFQKDFKSAVYDEFINAYEEGQTPNPCALCNPLMKFGLALDHALKLGCEKIATGHYARVKEIDKVSYIQEALDKTKDQSYFLYALEHEVIAKLVFPLGDLLKKDIKPLALNAMPFLGTLETYKESQEICFVEKSYIDTLKKHVEVEKEGVVKNLQGEVIGTHKGYMQYTIGKRKGFSVKGALEPHFVVGIDAKKNELIVGKKEDLATHSLKAKNKSLTKDFKDGEYFIKARYRSVPTKAFVSLKDGMIEVEFKEPFYGVAKGQALVVYKDDILLGGGVIVEGHHHHHH | soluble |
| MKPTFLEFRHLKTLLALKETGSVSLAAKRVYLTQSALSHQIKLIEEQFGLPLFERKSNPLRFTSAGERLIRLANEVMPKVIDAERDLARVKHGDAGQLRIAVECHTCFDWLMPAMDEFRQHWGLVELDIVSGFHTDPVGLLLSHRADWAIVSEIEHNDDVIFKPLFSYEMVGICSKNHSLAEKDIWEAEDFIDETWVTYPVPDDMLDLWRKVLKSKGINPTRRTTELTIAMIQLVASRRGIATIPYWAALPYLEKGYVVARKVTKEGLYSNLYAAIRKEDESLSYLEDFYQTVKSQSFSTLPGLSVLNL | not soluble |
| MSVVSERDVDEYSKQKPETYVLQVSERERKEKYERKNPPIPLDNEYNYQDVTPSPFPFHIDAPSLVFMGRLGEEPISAHFTLTNRTCKPFWFKIKVSSRELFKVRPTNGKLENSERVVIRVIFYPNVRVPKPFCEYLHVYALFAGLGDRTAYEAFNRLDRQRTLPPKRLFTEFVWHPNIGMTQAYENGKLMEMMRAKQKLLDYRKDENDKIKTFQVDFNNVIFDHRNRVLDRMLKANVVEKEKLLYMPTPNLNLYMQNLRNQKNRSKLAVLLERRGDAFKGVQNLYAEEVLAKRTGDKMFEKYKKKKGTKGYQSLDAKLYRPVKVVRNTKNKKKKGKK | not soluble |
| MSSTAVVPSAPGPGPGPSGGPGGGTEVIQVTNVSPSASSEQMRTLFGFLGKIDELRLFPPDDSPLPVSSRVCFVKFHDPDSAVVAQHLTNTVFVDRALIVVPYAEGVIPDETKALSLLAPANAVAGLLPGGGLLPTPNPLTQIGAVPLAALGAPALDPALAALGLPGTNLNSQSLAADQLLKLMSTVDPKLNHVAAGLVSPSLKSDTSSKEIEEAMKRVREAQSLISAAIEPDKKEEKRRHSRSRSRSRRRRTPSSSRHRRSRSRSRRRSHSKSRSRRRSKSPRRRRSHSRERGRRSRSTSKARD | soluble |
| MGSDKIHHHHHHAGLPDNLTPVGAERAASPDGRIPAWQGGLSTAQQRLGDNGTPLDPFADEQPLYRITAANYRQYRGQLTDGQVALLKRFPASLSLPVYPTHRSVAVPDAVAASAARNAEQAQLDDQGNGVRGFTGVIAFAQPTNGLEVIWNHLTRHRNVSYSLSSDSVTPLKNGRFVLMSARQEVARPEGLANLGAGNVLYYFTYRMTAPSRLAGDAMVVHETLDQVAEPRLSWVYSASQRRVRRAPNIAYDTTGPGTAGLRTADSRDMFNGAPDRYDWKLLGKQALHVPYNCYRLASPELRYVDLIKPGHIDPAPTRYELHRVWVVEATLKPGAQHIYAKRRFYLDEDTWAILETDSYDARGELWRTSQAHGFFHPSGQVAVNAMEITYDLKSGRYHASGLINEQRRPFAFNVRTSLSYFSPGALRSFGVR | not soluble |
| MSLAYTKKKYTPKTKEQIKEETKEIMDKVLTDITKYYRSPEDMLELANFMAKFSNYSPKNMQLIRSQFENAYACANFKAFKDAGFHVNKGETAMKVFHPYVKEYVRDPRTKLAIPLGKLTEEQKKQVKNGELKVEKQTNYYLKATAFDISQTNAKPEDLPKIFPNRQFNFEINDENKELLKIGIQALAEKENIKIKTMGQGALVKELGNVHGAYVQVLDSSYSQIVMNPRNTETNELSVAIHELAHAKLHGNKIDPLEHTPTKEFEAELTSYIVCKHYGMDTSESAVPYIAQWTKNGQDIEEKDKSIMRVHETASSFINTIDKKISELQREGHHHHHH | soluble |
| MRITSTANPRIKELARLLERKHRDSQRRFLIEGAREIERALQAGIELEQALVWEGGLNPEEQQVYAALGRVGRLALLEVSEAVLKKLSVRDNPAGLIALARMPERTLEEYRPSPDALILVAVGLEKPGNLGAVLRSADAAGAEAVLVAGGVDLYSPQVIRNSTGVVFSLRTLAASESEVLDWIKQHNLPLVATTPHAEALYWEANLRPPVAIAVGPEHEGLRAAWLEAAQTQVRIPMQGQADSLNVSVSAALLLYEALRQRLLRDRLTKTHSTL | soluble |
| MGSDKIHHHHHHMVAQIQELDALHWVKTRSSLDPNQSTFLTWTGKIYAFIPGEKRKLLFKMVGVSVSRCLPTDEGNWDFTSRELTYYLNPENDEILRKWENPWTGETVPVLHVANNPVQGHFQGKFPAQVEGETTTFVFDIFPTYPNPLAEETQFAEYSPYPTYQAAELFKLTVPTADLFNAELPAVSQLRLSWDRIGQWLPWMKMGDRPGNLIYSAFGSKVNGLTELPHILQEEINTRVPLYKQAPKTFSDGEDMTSWLYFQKHFQAYLAGDIFPLPADEEV | not soluble |
| SSAESASQIPKGQVDLLDFIDWSGVECLNQSSSHSLPNALKQGYREDEGLNLESDADEQLLIYIPFNQVIKLHSFAIKGPEEEGPKTVKFFSNKEHMCFSNVNDFPPSDTAELTEENLKGKPVVLKYVKFQNVRSLTIFIEANQSGSEVTKVQKIALYGST | soluble |
| MGSDKIHHHHHHMINSYLVQQIKGNFLYKPTLEQEKAVKFLADFLFSRQSDSVFLLKGYAGTGKTSLIGALVKTLDQLQQKCVLLAPTGRAAKVFSHYAQHPAYTIHKKIYRQRNFSNDLDNFSLDDNLHQHTLFIVDEASMIANDGLAGAVFGTGRLLDDLIQYVYAGTGCRLMLIGDTAQLPPVGEEESPALSADKLRGYGMEVYEAQLTEVVRQMHDSGILWNATELRRYISEENFLTLPSVRVEGFPDIRMVSGSELIEVINDCYGQAGMDETIVVCRSNKRANIYNKGIRNTILFREDELNSGDLLMVAKNNYFWTEGCKEIDFIANGDIAVVRRVRRVREAYGFRFADVVLAFPDYDGMELEVKLLLDTLHTETPALPKELNDKLFYSVLEDYADITVKRERMKKMKADPHYNALQVKYAYAVTCHKAQGGQWKRVFLDQGYMTEDMLTPDYFRWLYTAFTRATEILYLVNWPKEQTE | not soluble |
| MANQVNGNAVQLKEEEEPMDTSSVTHTEHYKTLIEAGLPQKVAERLDEIFQTGLVAYVDLDERAIDALREFNEEGALSVLQQFKESDLSHVQNKSAFLCGVMKTYRQREKQGSKVQESTKGPDEAKIKALLERTGYTLDVTTGQRKYGGPPPDSVYSGVQPGIGTEVFVGKIPRDLYEDELVPLFEKAGPIWDLRLMMDPLSGQNRGYAFITFCGKEAAQEAVKLCDSYEIRPGKHLGVCISVANNRLFVGSIPKNKTKENILEEFSKVTGLTEGLVDVILYHQPDDKKKNRGFCFLEYEDHKSAAQARRRLMSGKVKVWGNVVTVEWADPVEEPDPEVMAKVKVLFVRNLATTVTEEILEKSFSEFGKLERVKKLKDYAFVHFEDRGAAVKAMDEMNGKEIEGEEIEIVLAKPPDKKRKERQAARQASRSTAYEDYYYHPPPRMPPPIRGRGRGGGRGGYGYPPDYYGYEDYYDDYYGYDYHDYRGGYEDPYYGYDDGYAVRGRGGGRGGRGAPPPPRGRGAPPPRGRAGYSQRGAPLGPPRGSRGGRGGPAQQQRGRGSRGSRGNRGGNVGGKRKADGYNQPDSKRRQTNNQQNWGSQPIAQQPLQQGGDYSGNYGYNNDNQEFYQDTYGQQWK | soluble |
| MGSDKIHHHHHHSCGTNGSKTTSTDITEKKVIVQVPQFDADSAYKYIQAQVDFGPRTPNSKGHVACGDYLAAKLAEHGAKVISQNAELPAYDGTLLKARNIIGSFKPESKKRIALFAHWDTRPWADNDPNEKNHHTPILGANDGASGVGVLLEIARQINQQQPELGIDIIFLDAEDYGAPQFYTGEHREDQWCLGAQYWARTPHVDGYNARFGILLDMVGGKDATFFKEVYSEKYAKGINKKVWKKANDAGYGRYFINEVGGQITDDHLFINRLAGIPTIDIIPNDENCELSSFGPTWHTVNDNMDAIDRSTLKAVGQTVLEVIYNEK | not soluble |
| PATDASVLLVQLSDSHLFAEDGARLLGMDTAHSLEKVVERVAREQPRIDLILATGDVSQDGSLDSYTRFRRLSAPLDAPLRWFAGNHDEREPMQRATEGSDLLEQVVDVGNWRVVLLDSSIPGAVPGYLEEDQLELLRRAIDSAGERFLLVSFHHHPVPIGSDWMDPIGLRNPQALFDLLAPYPQVRCLLWGHIHQEFDRQRGPLRLLASPSTCVQFAPGSSDFTLDRLAPGYRWLRLHDDGRLETGISRVDDVVF | not soluble |
| MGKRFSSFQAAQIRIARPTGQLDEIIRFYEEGLCLKRIGEFSQHNGYDGVMFGLPHADYHLEFTQYEGGSTAPVPHPDSLLVFYVPNAVELAAITSKLKHMGYQEVESENPYWSNGGVTIEDPDGWRIVFMNSKGISGK | soluble |
| MCSTFMHKFYNSFYFGVMLTTRKEEQMLSKIVWSLLKPQLSSRSYLYNKFVVPPLQIIYVQ | soluble |
